From publication PMC6803640, “Oligomeric state, hydrodynamic properties and target recognition of human Calcium and Integrin Binding protein 2 (CIB2)” (Scientific Reports, 2019)
“And” between values parts separate entries of the source, which are not always exact repeats. Identical values can stand only once.

How the values were obtained:
[1] = biological target: integrin αIIb peptide (Homo sapiens) (UniProt P08514); assay: SPR; settings: cited from earlier work
[2] = biological target: T1, human CIB2 (Homo sapiens, UniProt O75838); assay: SPR interaction of α7B peptides with immobilized CIB2; type: binding; settings: His-CIB2 capture (7.5 µM peptide, or 230 nM–30 μM) and amine-coupled untagged CIB2 (7.5–30 µM); 1 mM Mg^2+, 2 mM Ca^2+; experiments repeated 4 times
T1 construct: made in house
T1 sequence (O75838 1-187): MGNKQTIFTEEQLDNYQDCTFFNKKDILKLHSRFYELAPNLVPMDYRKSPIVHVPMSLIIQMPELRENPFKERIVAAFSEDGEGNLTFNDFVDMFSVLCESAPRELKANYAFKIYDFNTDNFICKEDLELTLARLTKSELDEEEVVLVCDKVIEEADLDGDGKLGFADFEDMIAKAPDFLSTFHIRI
Text: SPR was also used to study quantitatively the interaction of CIB2 with one of its established targets, namely the cytoplasmic domain of integrin α7B[3],[7]. Three different peptides were used in the interaction experiments. A peptide corresponding to the membrane proximal segment of the cytoplasmic domain of α7B integrin (α7B_M), another peptide with the same amino acid content, but randomized sequence (α7B_Scrb) and a peptide covering the C-terminal region of the cytoplasmic domain of α7B integrin (α7B_C). Three different approaches were used. In a first approach, His-tagged CIB2 was initially coupled to the surface of a His-cap sensor chip (see Methods), thus ensuring homogeneous site-specific orientation, and then blocked via standard amine coupling. […] The minor differences in the spectra at the level of the phenylalanine band can be ascribed to the TEV-protease recognition site (ENLYFQ), uncleaved in the His-tagged protein. […] In a third approach, we used the same low levels of CIB2 immobilization via amine coupling described in the experiments to probe CIB2 dimerization (100–200 RU) and flowed the three peptides.
The second approach (direct peptide immobilization) led to very low signals and unreproducible results and was not pursued any further. […] In spite of such differences, which might reflect both the heterogeneity of the surface and the different chemistry of immobilization, interaction results were consistent with one another. […] It should be noted that both Huang et al.[7] and Häger et al.[3] used peptides from mouse integrin, while we used the corresponding human sequences, which in the case of α7B_C lacks the tryptophan residue present in the mouse sequence. It is not uncommon that fluorescence spectroscopy interaction studies based on the peptide intrinsic fluorescence (CIB2 has no tryptophan residue) reveal some non-specific binding, especially when a highly hydrophobic protein such as CIB2 is the ligand. […] It cannot be excluded that a similar phenomenon occurred for murine α7B_C in the work by Häger et al.[3]. Our present results, based on accurate, label-free interaction studies clearly identify the region covered by α7B_M as the preferential binding site of CIB2 with α7B integrin.
SPR titrations of α7B_M over homogeneously coupled CIB2 (approach 1) gave very reproducible results and were performed both in the presence of 1 mM Mg^2+ and in the co-presence of 1 mM Mg^2+ and 2 mM Ca^2+. Peptide concentration was varied in the 230 nM–30 μM range. As anticipated, sensorgrams could not fit to a 1:1 binding model, and the kinetic model that better fit the data was a bivalent analyte model (see Methods), in which one α7B_M peptide could bind to two CIB2 molecules. According to this scheme, binding of the peptide to the first CIB2 molecule would direct the binding to the second one, thus resulting in two sets of kinetic constants.
Details of the protein and peptide immobilization procedures and experimental settings are elucidated in the Supplementary Information.
Kinetic data were fitted according to a bivalent analyte model, were a CIB2 monomer (L) can bind an α7B_M peptide (A), and the resulting complex (AL) can bind to a second CIB2 molecule (AL2), with all processes being possibly reversible, as follows: A+L→ka1ALAL→kd1A+LAL+L→ka2AL2AL2→kd2AL+L […]

[3] = biological target: T1, human CIB2; assay: Cross-linking (DSBU)/MALDI-TOF-MS of CIB2 with α7B peptides; type: binding; settings: 10 µM CIB2, 5, 10, 20 µM peptide, 50-fold DSBU; 20 mM HEPES pH 7.5, 1 mM Mg^2+, 2 mM Ca^2+, room temperature
Experimental: CIB2 samples were cross-linked with DSBU in the presence of peptide α7B_M or α7B_Scrb as described in ref.[14] Briefly, 10 µM CIB2 was diluted in 20 mM HEPES, pH 7.5, 1 mM DTT, 1 mM Mg^2+ and 2 mM Ca^2+ and incubated with increasing peptide concentrations (5 µM, 10 µM, and 20 µM) for 10 min at room temperature. Then, 50-fold molar excess of DSBU was added and the reactions were conducted for 20 min at room temperature. As control, CIB2 was treated with DSBU without peptide. Reactions were blocked by adding ammonium bicarbonate to a final concentration of 20 mM.
Cross-linked CIB2 samples were desalted via ZipTip C4 tips (Millipore) before MALDI-TOF-MS analysis (Ultraflex III MALDI-TOF/TOF mass spectrometer, Bruker Daltonik, Bremen) was conducted using sinapinic acid as matrix. For further details see Supplementary Methods. Baseline subtraction and spectra smoothing were performed. […]
Cross-linking reactions and Mass Spectrometry
Cross-linking reactions were performed with 10 µM CIB2 (in 20 mM HEPES pH 7.5, 150 mM KCl, 1 mM DTT, 1 mM Mg2+, 2 mM Ca2+) and increasing concentrations of peptides α7B_M and α7B_Scrb, ranging from 0.5:1 to 2:1 peptide:protein ratios. After incubating the samples for 10 minutes at room temperature, DSBU (freshly prepared solution, dissolved in neat DMSO) was added to the mixture at 50-fold molar excess compared to CIB2 concentration. As the final volume of the reaction mixture was 50 µL, 1 µL of 25 mM DSBU was added to each sample. After 20 minutes, the cross-linking reactions were quenched by adding ammonium bicarbonate to a final concentration of 20 mM. Samples were incubated for 10 minutes before SDS-PAGE analysis was performed (data not shown). Samples for MALDI-TOF-MS measurements were desalted by ZipTip C4 (Millipore) and desalted protein was eluted with 70% (v/v) acetonitrile / 1% (v/v) formic acid. Each sample was mixed with a saturated solution of sinapinic acid (in 50% (v/v) methanol / 0.1% (v/v) TFA) at 1:1 ratio and spotted onto the MALDI target. […]

[4] = system: CIB2; settings: peptide intrinsic fluorescence; cited from earlier work
Text: In a recent study[8] we investigated the capability of CIB2 to bind Ca^2+ and Mg^2+ thereby switching to a functionally distinct structural state. By integrating several biochemical and biophysical techniques we could establish that in the absence of any cation CIB2 forms a molten globule state that essentially lacks tertiary structure. […] This is quite unusual for Ca^2+-sensor pro ... || The second approach (direct peptide immobilization) led to very low signals and unreproducible results and was not pursued any further. […] In spite of such differences, which might ... || Interaction with α7B occurs in the region proximal to the membrane and not close to the C-terminus of the cytosolic domain of the integrin. The recognition between CIB2 and the α7B target is kinetically favored in the presence of physiological Mg^2+ and in the absence of Ca^2+ and it might induce binding of another CIB2 molecule. […] However, CIB2 per se binds a single peptide as a monomer, and the complex could then induce CIB2 dimerization, ...

[5] = biological target: integrin α7B peptide (Homo sapiens, UniProt Q13683, Mg2+ and Ca2+); assay: SPR
[6] = biological target: integrin α7B peptide (Homo sapiens, UniProt Q13683, Mg2+); assay: SPR
[7] = system: CIB2; assay: Near-UV circular dichroism; type: physicochemical, human; settings: 20-30 µM, 37 °C, EGTA, 1 mM Mg^2+, 2 mM Ca^2+; 20 mM HEPES pH 7.5
Experimental: CIB2 tertiary structure was investigated by using a Jasco J-710 spectropolarimeter equipped with a Peltier type cell holder as previously described. Briefly: near-UV (250–320 nm) CD spectra of 20 μM of sole CIB2 or CIB2/α7B_M complexes (1:1 and 1:2 ratios) were collected in the presence of 500 μM EGTA and after sequential additions of 1 mM Mg^2+ and 2 mM free Ca^2+. A 1 cm quartz cuvette was used, temperature was set at 37 °C, integration time and data pitch were set to 4 s and 1 nm, respectively. Each spectrum represents the average of 5 accumulations. […]
Figure S4: Structural comparison of His-CIB2 (A) and CIB2 (B). Near-UV CD spectra (250-320 nm) of 20-30 µM CIB2 were collected at 37°C in a quartz cuvette with 1 cm length path. Sequential additions of 500 µM EGTA (black), 1 mM Mg2+ (blue) and 2 mM Ca2+ (red) were performed. Near-UV CD spectra of the buffer (20 mM HEPES pH 7.5, 150 mM KCl, 1 mM DTT) was considered as blank and subtracted. Each spectrum represents the mean of 5 accumulations. Data were normalized according to the protein concentration and the number of residues (Molar Residue Ellipticity, MRE).
Figure S5: Near-UV CD spectra of CIB2 in the presence of different stoichiometric ratios of alpha7B_M peptide. Near-UV CD spectra (250-320nm) of 20 μM CIB2 in the absence of peptide (black lines) and in the presence of two different protein/peptide ratios (1:1 blue lines; 1:2 red lines) collected at 37°C in the presence of 500 μM EGTA (A) and after sequential additions of 1 mM Mg2+ (B) and 2 mM free Ca2+ (C). The spectrum of alpha7B_M peptide in the absence of CIB2 is shown in dashed grey lines. […]

[8] = biological target: T2, Calcium- and Integrin-Binding protein 2 (CIB2), human, untagged (human, UniProt O75838 1-187); assay: cross-linking; 10 µM CIB2 incubated with 5, 10 or 20 µM peptide, then 50-fold molar excess of DSBU for 20 min at room temperature; 20 mM HEPES pH 7.5, 1 mM DTT, 1 mM Mg2+, 2 mM Ca2+; read by MALDI-TOF-MS of the intact protein; settings: both partners purified
T2 construct: measured mass 21,767 Da by native ESI-MS; The printed mass (21.7 kDa) fits the whole protein; Residues may remain after TEV cleavage of the His tag; also called untagged CIB2; uncoupled CIB2
T2 sequence (looked up): T1 sequence (O75838 1-187)

[9] = biological target: T3, His-tagged CIB2, human (TEV protease recognition site and His tag kept) (human, UniProt O75838 1-187); assay: SPR; His-tagged CIB2 captured by its His tag on a His-cap chip, then blocked via amine coupling; α7B_M titrated 230 nM-30 µM in the presence of 1 mM Mg2+ without Ca2+; bivalent analyte model and steady state analysis; apparent constants; settings: both partners purified
T3 construct: It was used only in the SPR experiments where CIB2 was captured by its His tag; also called His-CIB2
T3 sequence (looked up): T1 sequence (O75838 1-187)

[10] = biological target: T3, His-tagged CIB2, human (TEV protease …); assay: SPR; His-tagged CIB2 captured by its His tag on a His-cap chip, then blocked via amine coupling; peptides injected (7.5 µM; α7B_M titrated 230 nM-30 µM); 20 mM HEPES pH 7.5, 150 mM KCl, 1 mM DTT, 1 mM Mg2+, 2 mM Ca2+, 50 µM EDTA, 0.005% Tween; bivalent analyte model and steady state analysis; apparent constants; settings: both partners purified

Sequence of integrin αIIb peptide (Homo sapiens) (P08514 1014-1039): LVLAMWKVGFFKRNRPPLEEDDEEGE

CIB1 (from UniProt Q99828)
Kd [1]: 12 µM

KEFWGLHAKPRLKLMF [α7B_Scrb]
SPR interaction with CIB2 [2]: interact with low affinity
CIB2/peptide complex formation, 1:1 [3]: only minor signals for a 1:1 complex
fluorescence titration of CIB2 [4]: some non-specific signal

LAADGHPELGPDGHPGPGTA [α7B_C, peptide covering the C-terminal region of the cytoplasmic domain of α7B integrin]
SPR interaction with CIB2 [2]: could not detect any interaction

B1: CIB2 (protein)
chain: T1 sequence (O75838 1-187)
Kd [5]: 25 µM
Kd [6]: 11.6 µM

B2: His-tagged CIB2: CIB2 with the TEV protease recognition site and the Histag kept (protein)
chain: T1 sequence (O75838 1-187)
modifications: left off: His tag, end not stated, kept | TEV protease recognition site (ENLYFQ), end not stated, kept
near-UV CD, tertiary structure vs untagged CIB2 [7]: substantially the same tertiary structure of the untagged protein

B3: α7B_M peptide, membrane proximal segment of the cytoplasmic domain of α7B integrin (peptide)
peptide: Ac-LLLWKMGFFKRAKHPE-NH2
notes: integrin α7B, human, membrane proximal segment of the cytoplasmic domain; also called α7B peptide; source: synthetic peptide, bought: Genscript
stoichiometry N [8]: 1 peptide per CIB2 and 2 peptides per CIB2
Kd [9]: 210 µM
Kd [10]: 154 µM
